This experiment concerns the target CNGB3N-EGFP-F (striped bass (Morone saxatilis)) (UniProt Q3I0N1). Description: FRET or BRET. A general note: In BRET a luciferase serves as donor, and the signal depends on an acceptor being close.

In turn, “CNG-modulin-HaloTag-TMR (from UniProt H8PG32 1-301) (natural protein)” gave an E FRET (FRET efficiency), mean of 0.3.

These data come from publication PMC3296131.
